Our source for the stoichiometry N values is PMC8927995.

The experiment concerns the target PspR, DTG rhodopsin from Pseudomonas putida (Pseudomonas putida). The experiment in a line: crystal structure.

For “PspR, DTG rhodopsin from Pseudomonas putida (natural protein)”, the stoichiometry N was found to be 3.

Usually stoichiometry N stands for a count of units in the complex or per binding partner.
